In general, Kd refers to the free concentration of one partner at which half of the binding sites on the other are occupied at equilibrium, for simple one-to-one binding. Read a low Kd as tighter binding.

Sequences and labels used below:
B1: mouse sCD25 (murine soluble CD25, aa1-208 of NP_032393, C-terminal 8-histidine) (receptor)
chain: ELCLYDPPEVPNATFKALSYKNGTILNCECKRGFRRLKELVYMRCLGNSWSSNCQCTSNSHDKSRKQVTAQLEHQKEQQTTTDMQKPTQSMHQENLTGHCREPPPWKHEDSKRIYHFVEGQSVHYECIPGYKALQRGPAISICKMKCGKTGWTQPQLTCVDEREHHRFLASEESQGSRNSSPESETSHHHHHHHH
notes: range 1-208; Secreted from stably transfected HEK293F cells and purified on Ni-NTA; The construct is defined as aa1-208, signal peptide included; also called murine sCD25; mCD25

Assay [1] addresses T1, anti-mouse CD25-BV421 mAb (clone PC61).
T1 construct: Commercial fluorochrome-conjugated mAb (Biolegend), mouse-specific; also called BV421-PC61; anti-mouse CD25 mAb
In words: Flow cytometry competition: mouse sCD25 (1-1000 nM) pre-incubated with BV421-PC61 for 1 h at 4 °C, then HEK cells expressing full-length mouse CD25 added; blocked: binding of the mAb to CD25 on the cells. How it is done:
Then, HEKs expressing full-length transmembrane mouse CD25 or human CD25 were added to each tube and incubated for 1 hour at 4° C. and subsequently washed with HBSS two times prior to analyzing surface bound anti-CD25 mAbs by flow cytometry.

For assay [2], the target named is B1. Put plainly: SPR (Biacore T200), steady-state fit; mouse IL-2 (1000-3.9 nM) injected over immobilized mouse sCD25; mean ± SD of three injection series. How it is done:
(§1) SPR experiments were performed on a Biacore T200 instrument at 25° C. using a flowrate of 30 μL min-1 in a running buffer of HBS-T (10 mM HEPES (pH 7.3), 140 mM NaCl, 0.005% Tween 20). Proteins were immobilized on a CMD200 biosensor chip (Xantec Bioanalytics) using ethyl-3-(3-dimethylaminopropyl)-carbodiimide (EDC)/N-hydroxysuccinimide/(NHS) coupling chemistry. […] A reference surface was created by EDC/NHS activation followed by a seven-minute injection of 1 M ethanolamine (pH 8.5). […] Surfaces were regenerated to baseline by injection of 2M NaCl for three minutes. Each injection series was performed in triplicate. The resulting reference-corrected sensorgrams were blank subtracted using an injection of HBS-T and fit to a steady-state model of binding using T200 Evaluation software. KD values and Rₘₐₓ values are reported as the mean±standard deviation (SD). All figures were prepared using Graphpad Prism 8.0.
On the technique in general: Surface plasmon resonance follows binding to a sensor surface in real time, without labels.

The target of assay [3] is T2, human sCD25(C213T) (aa1-240 of NP_000408 with C213T, C-terminal 8-histidine) (human, UniProt P01589 22-240).
T2 construct: range 1-240; Secreted from stably transfected HEK293F cells and purified on Ni-NTA; the inserted alanine shifts positions in the construct by one; No signal peptide cleavage site is stated; also called hCD25-C213T
T2 sequence: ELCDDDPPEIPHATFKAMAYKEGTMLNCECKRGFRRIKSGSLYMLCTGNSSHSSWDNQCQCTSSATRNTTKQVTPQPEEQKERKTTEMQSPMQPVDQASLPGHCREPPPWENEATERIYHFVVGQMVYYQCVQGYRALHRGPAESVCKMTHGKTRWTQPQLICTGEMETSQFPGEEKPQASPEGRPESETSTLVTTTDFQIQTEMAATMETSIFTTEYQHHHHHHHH
In words: SPR (Biacore T200), steady-state fit; mouse IL-2 (1000-3.9 nM) injected over immobilized human sCD25(C213T); mean ± SD of three injection series [cont'd.) B]. How it is done: as §1

In assay [4] the target is T3, human truncated-sCD25 (aa1-212 of NP_000408, C-terminal 8-histidine) (human, UniProt P01589 22-212).
T3 construct: range 1-212; Secreted from stably transfected HEK293F cells and purified on Ni-NTA; No signal peptide cleavage site is stated; also called hCD25-trunc
T3 sequence: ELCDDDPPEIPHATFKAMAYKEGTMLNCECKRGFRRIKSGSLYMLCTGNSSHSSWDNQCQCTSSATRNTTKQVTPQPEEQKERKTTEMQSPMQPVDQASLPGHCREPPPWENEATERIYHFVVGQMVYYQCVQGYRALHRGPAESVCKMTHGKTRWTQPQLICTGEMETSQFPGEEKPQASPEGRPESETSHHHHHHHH
In words: SPR (Biacore T200), steady-state fit; mouse IL-2 (1000-3.9 nM) injected over immobilized human truncated-sCD25; mean ± SD of three injection series [cont'd.) C]. How it is done: as §1

As to B1, the “IC50 (read off the curve)” value in assay [1] is about 5 nM.

B2: recombinant murine IL-2 (accession number NP_032392) (ligand, mouse, UniProt P04351 21-169, looked up)
chain: APTSSSTSSSTAEAQQQQQQQQQQQQHLEQLLMDLQELLSRMENYRNLKLPRMLTFKFYLPKQATELKDLQCLEDELGPLRHVLDLTQSKSFQLEDAENFISNIRVTVVKLKGSDNTFECQFDDESATVVDFLRRWIAFCQSIISTSPQ
notes: also called mouse IL-2; mIL-2
For the molecule B2, the Kd was found to be 250 nM in assay [2], 430 nM in assay [3] and 740 nM in assay [4].
